Laboratory results taken from patent publication US20160151510A1.

How the values were obtained:
[1] = molecular target: GLP-1 receptor (covalently immobilized to the Biacore biosensor surface); test: Biacore SPR, GLP-1 receptor covalently immobilized, peptide injected
[2] = molecular target: GLP-1 receptor on CHO-K1/GLP1/Gal5 cells; test: cell-based or functional assay

Row | Kd [1] [nM] | EC50 of intracellular calcium mobilization (Calcium-4, FlexStation, RFU) [2] [nM] | Substance
1 | 1600 | 336 | 5 kDa-PEG-Cys(37)-GLP-1 (from UniProt P01275 27-56) (peptide)
2 | 1000 | – | GLP-1 (7-36) (from UniProt P01275 27-56) (peptide)
